Reference: patent publication US20210340206A1 (SYLUS, published 2021)

T1: Soluble mouse EPOR chimera protein (R&D Systems) (mouse, UniProt P14753 25-249)
T1 construct: extracellular domain; Bought from R&D Systems; Amine-coupled to the SPR chip; also called erythropoietin receptor
T1 sequence (looked up): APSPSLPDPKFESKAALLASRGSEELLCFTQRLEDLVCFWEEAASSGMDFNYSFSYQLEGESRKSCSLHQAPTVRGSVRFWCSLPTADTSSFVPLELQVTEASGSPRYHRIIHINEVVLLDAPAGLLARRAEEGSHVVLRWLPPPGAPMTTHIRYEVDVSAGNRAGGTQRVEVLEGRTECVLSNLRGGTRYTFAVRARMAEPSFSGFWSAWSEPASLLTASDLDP


Target: T1, Soluble mouse EPOR chimera protein (R&D …)
Test: SPR, mouse EPOR chimera amine-coupled to chip, peptide as analyte

Binder | Kd
LQLHVLKAVSGLLTLTMIRRALG [ML1-H2] | 0.307 µM
LQLHVLKAVSGLLTHTTLLKALG [ML1-H1] | 7.85 µM
LQLHVDKAVSGLRSLTTLLRALG (Synthetic monomer made by solid phase peptide synthesis; also called erythropoietin-derived peptide ML1) [ML1] | 6.46 µM
LDLEVDKAVSGLRSLTTLLRALG (Charge-modified variant of ML1) [ML1-C1] | 150 µM
LQRHVDKRVSGLRSLTTLLRALG (Charge-modified variant of ML1) [ML1-C2] | 11.8 µM
LQRHVKKRVKGLKSLTTLLRALG (Charge-modified variant of ML1) [ML1-C3] | 9.83 µM
LQLHVLKAVAGLRTLAMIRRALA [ML1-H3] | 1.15 µM

Target: T1, Soluble mouse EPOR chimera protein (R&D …)
Test: as above
Remark: another data set of the same source
Method: The SPR technique is to measure interactions between biomolecules in real-time by using an optical principle without specific labeling, and is a system analyzing affinity between two molecules and kinetics, i.e., an association rate (Ka) and a dissociation rate (Kd).
In detail, real-time SPR analysis was performed using Reichert SPR Biosensor SR 7500C instrument (Reichert Inc., NY, USA). Soluble mouse EPOR chimera proteins (R&D Systems, Minneapolis, Minn., USA) were covalently linked to a carboxymethylated dextran matrix-coated chip (BR-1005-39, Pharmacia Biosensor AB) by an amine coupling procedure using an amine coupling kit (BR-1000-50, GE Healthcare, USA) in accordance with manufacturer's instructions. […] For signal normalization, DMSO was applied at a flow rate of 5 μl/minute, and after each binding cycle, the sensor chip was regenerated by injecting 25 mM acetic acid at a flow rate of 20 μl/minute.

Binder | Kd
DKAVSGLRSLTTLLRAL (Synthetic monomer) [ML8] | 444 µM
DKAVSGLRSLTTLLRALGAQKEAI (Synthetic monomer) [ML4] | 10 µM
NKAVAGLRSLTVN (Synthetic monomer) [ML8-1] | 2370 µM
DEALDLEVDKAATGLRTLTTLIRAL (Synthetic monomer) [ML7-1] | 63.7 µM
RHVQKAESGLRSLTKLLREL (Synthetic monomer) [ML2-1] | 14.3 µM
TKVNFYAWKR (Synthetic monomer) [ML3] | 14.6 µM
TRVNYQAWKR (Synthetic monomer) [ML3-1] | 4.31 µM
KGLRSLISLLRALGAQKEAI (Synthetic monomer) [ML6-1] | 158 µM
LQLHVDKAVSGLRSLTTLLRALG (Synthetic monomer made by solid phase peptide synthesis; also called erythropoietin-derived peptide ML1) [ML1] | 6.46 µM
LQLHVLKRVSGLLSHTMLLKALG (Synthetic monomer) [ML1-1] | 1.06 µM
LHVDKAVSGLRSLTTLLRAL (Synthetic monomer) [ML2] | 273 µM
KKAVSGLKTLTHILRALGAQKEAI (Synthetic monomer) [ML4-1] | ~39.3 µM
SGLRSLTTLLRALG (Synthetic monomer) [ML5] | 0.329 µM
AGLRSRAHLRRALA (Synthetic monomer) [ML5-1] | 78.3 µM
SGLRSLTTLLRALGAQKEAI (Synthetic monomer) [ML6] | 900 µM
